The values that follow come from article doi:10.1101/2023.08.03.551877 (bioRxiv, 2023).

The chains are these.
B1: Rco1 (natural protein)
chain: MDTSKKDTTRSPSHSNSSSPSSSSLSSSSSKEKKRPKRLSSQNVNYDLKRRKIITSEGIERSFKNEHSNLAVEDNIPEEEPKELLEKDSKGNIIKLNEPSTISEDSKVSVTGLPLNKGPSEKIKRESLWNYRKNLGGQSNNSEMTLVPSKRFTQVPKNFQDLNRNDLKTFLTENMTEESNIRSTIGWNGDIINRTRDREPESDRDNKKLSNIRTKIILSTNATYDSKSKLFGQNSIKSTSNASEKIFRDKNNSTIDFENEDFCSACNQSGSFLCCDTCPKSFHFLCLDPPIDPNNLPKGDWHCNECKFKIFINNSMATLKKIESNFIKQNNNVKIFAKLLFNIDSHNPKQFQLPNYIKETFPAVKTGSRGQYSDENDKIPLTDRQLFNTSYGQSITKLDSYNPDTHIDSNSGKFLICYKCNQTRLGSWSHPENSRLIMTCDYCQTPWHLDCVPRASFKNLGSKWKCPLHSPTKVYKKIHHCQEDNSVNYKVWKKQRLINKKNQLYYEPLQKIGYQNNGNIQIIPTTSHTDYDFNQDFKITQIDENSIKYDFFDKIYKSKMVQKRKLFQFQESLIDKLVSNGSQNGNSEDNMVKDIASLIYFQVSNNDKSSNNKSASKSNNLRKLWDLKELTNVVVPNELDSIQFNDFSSDEIKHLLYLKKIIESKPKEELLKFLNIENPENQSE
B4: Ume1 (natural protein)
chain: MSTLDIAEDNKIKNEEFKIWKKSIPSLYQHISSLKPIFGSGVDESPSTLRSIVFTNDSSCNKSKGVLSVPLLYSQGSEIFEVDCIVPLGLHYKKPESISEPLVQPDYTMESQKVEQTVLIPKWEFKGETIAKMIYVDNSEINVKVIALSTNGSLAWFREGVKSPVYTMMEPSTSLSSASSGNQNKPCVDFAISNDSKTLTVTKEKHLDNENATIKLIDNSGKIGEVLRTIPVPGIKNIQEIKFLNNQIFATCSDDGIIRFWGNEIGKKPLWILNDSLDGKTTCFAASPFVDTLFMTGTSGGALKVWDIRAVIALGDADAELNINQGHNKVNELFKVHHFYSEQVSKIEFSSISPMEVVTIGGLGNVYHWNFEPVFAIYNEIHEDFQGIISDELEAESMAFYHTEGCRREIGENNKVNTVAYHKYIEDLVATVDSDGLLTVYKPFTGKVLDGSREVGAAKS

Assay in all cases: cryo-EM structure
The data set “cryo-EM structure” concerns the molecule itself.
Another data set addresses Sin3 (S. cerevisiae, UniProt P22579 1-1536).
The target of the data set “Rco1” is B1.
The data set “Ume1” has as its target B4.

Sin3, sequence (P22579 whole entry): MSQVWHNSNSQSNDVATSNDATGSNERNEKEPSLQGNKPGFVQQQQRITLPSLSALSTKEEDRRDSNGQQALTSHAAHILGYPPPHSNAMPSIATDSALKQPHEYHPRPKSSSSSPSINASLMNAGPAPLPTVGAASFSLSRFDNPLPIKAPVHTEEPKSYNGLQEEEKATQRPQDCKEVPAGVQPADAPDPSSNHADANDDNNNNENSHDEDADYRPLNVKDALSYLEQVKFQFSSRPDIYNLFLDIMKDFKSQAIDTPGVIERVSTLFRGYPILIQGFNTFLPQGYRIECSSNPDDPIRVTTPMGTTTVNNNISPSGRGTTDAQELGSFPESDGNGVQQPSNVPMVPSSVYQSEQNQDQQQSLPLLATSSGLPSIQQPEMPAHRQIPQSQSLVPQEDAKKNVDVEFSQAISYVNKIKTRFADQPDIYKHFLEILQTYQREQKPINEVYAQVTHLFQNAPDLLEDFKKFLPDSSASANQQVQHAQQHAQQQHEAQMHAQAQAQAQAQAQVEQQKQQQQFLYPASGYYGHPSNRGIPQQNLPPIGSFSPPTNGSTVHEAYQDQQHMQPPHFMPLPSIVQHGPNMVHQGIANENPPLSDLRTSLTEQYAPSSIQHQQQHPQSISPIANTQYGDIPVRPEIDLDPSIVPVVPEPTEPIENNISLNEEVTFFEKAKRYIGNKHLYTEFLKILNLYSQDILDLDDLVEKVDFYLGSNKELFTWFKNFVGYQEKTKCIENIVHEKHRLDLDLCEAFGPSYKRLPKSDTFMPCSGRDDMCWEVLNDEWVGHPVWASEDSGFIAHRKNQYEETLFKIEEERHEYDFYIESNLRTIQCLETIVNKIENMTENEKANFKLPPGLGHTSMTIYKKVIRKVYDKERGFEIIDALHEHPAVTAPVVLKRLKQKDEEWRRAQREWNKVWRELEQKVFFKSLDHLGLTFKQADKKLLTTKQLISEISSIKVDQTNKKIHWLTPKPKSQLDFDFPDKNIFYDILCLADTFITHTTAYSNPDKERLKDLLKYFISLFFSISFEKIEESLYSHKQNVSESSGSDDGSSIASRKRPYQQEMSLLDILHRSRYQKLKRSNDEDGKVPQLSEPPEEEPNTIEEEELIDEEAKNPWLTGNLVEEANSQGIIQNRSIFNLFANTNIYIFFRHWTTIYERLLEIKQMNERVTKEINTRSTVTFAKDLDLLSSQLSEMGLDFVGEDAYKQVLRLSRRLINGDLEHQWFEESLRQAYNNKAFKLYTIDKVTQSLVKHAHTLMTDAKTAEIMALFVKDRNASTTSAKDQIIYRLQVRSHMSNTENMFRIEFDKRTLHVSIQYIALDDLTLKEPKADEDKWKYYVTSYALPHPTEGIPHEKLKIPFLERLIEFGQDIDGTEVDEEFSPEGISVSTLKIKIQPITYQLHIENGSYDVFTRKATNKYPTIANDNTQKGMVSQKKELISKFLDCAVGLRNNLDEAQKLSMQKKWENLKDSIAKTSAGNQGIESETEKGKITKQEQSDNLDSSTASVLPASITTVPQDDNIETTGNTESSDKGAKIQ

On to B1, for which the binding result in “cryo-EM structure” and with Sin3 was “binds” each time.

B2: Rpd3 (enzyme)
chain: MVYEATPFDPITVKPSDKRRVAYFYDADVGNYAYGAGHPMKPHRIRMAHSLIMNYGLYKKMEIYRAKPATKQEMCQFHTDEYIDFLSRVTPDNLEMFKRESVKFNVGDDCPVFDGLYEYCSISGGGSMEGAARLNRGKCDVAVNYAGGLHHAKKSEASGFCYLNDIVLGIIELLRYHPRVLYIDIDVHHGDGVEEAFYTTDRVMTCSFHKYGEFFPGTGELRDIGVGAGKNYAVNVPLRDGIDDATYRSVFEPVIKKIMEWYQPSAVVLQCGGDSLSGDRLGCFNLSMEGHANCVNYVKSFGIPMMVVGGGGYTMRNVARTWCFETGLLNNVVLDKDLPYNEYYEYYGPDYKLSVRPSNMFNVNTPEYLDKVMTNIFANLENTKYAPSVQLNHTPRDAEDLGDVEEDSAEAKDTKGGSQYARDLHVEHDNEFY
On to B2, for which the binding result with Rco1 and with Sin3 was “binds” each time.

B3: Eaf3 (natural protein)
chain: MVDLEQEFALGGRCLAFHGPLMYEAKILKIWDPSSKMYTSIPNDKPGGSSQATKEIKPQKLGEDESIPEEIINGKCFFIHYQGWKSSWDEWVGYDRIRAYNEENIAMKKRLANEAKEAKKSLLEQQKKKKLSTSLGGPSNGGKRKGDSRSNASISKSTSQSFLTSSVSGRKSGRSSANSLHPGSSLRSSSDQNGNDDRRRSSSLSPNMLHHIAGYPTPKISLQIPIKLKSVLVDDWEYVTKDKKICRLPADVTVEMVLNKYEHEVSQELESPGSQSQLSEYCAGLKLYFDKCLGNMLLYRLERLQYDELLKKSSKDQKPLVPIRIYGAIHLLRLISVLPELISSTTMDLQSCQLLIKQTEDFLVWLLMHVDEYFNDKDPNRSDDALYVNTSSQYEGVALGM
With B3, the binding result with Rco1 and with Ume1 was “binds” in each case.

Consider B4, for which the binding result with Sin3 is recorded as “binds”.
